B1: SAT2 (parent)
chain: LTEAEGWHFFCFQGEATRKLAGK
B2: RSPH3 (parent)
chain: FIPAKTGKDVATQILEGELFDFDL
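Also: lentivirally expressed fusions sorted by FACS into six bins by GFP to DsRed ratio, PSI derived from sequencing read proportions per bin multiplied by bin number.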

In the first data set the parent is B1. Description: protein stability index of a GFP-peptide fusion (GPS, HEK-293T) (PSI 1-6); higher = more stable. The note with it: c terminus: native.
In the case of LTEAEGWHFFCFQGEATRKLAGM [K23M], the protein stability index was found to be 1.01.
Same read-out and setting: next, LTEAEGWHFFCFQGEATRKLAGS [K23S]: 2; LTEAEGWHFFCFQGEATRKRAGK [L20R]: 3.66.
As to LTEAEGWHFFCFQGEATRKDAGK [L20D], the protein stability index is 2.99.
The same measure, in the same setting: next, LTEAEGWHFFCFQGEATRKHAGK [L20H]: 2.64; LTEAEGWHFFCFQGEATRKTAGK [L20T]: 3.52.
With LTEAEGWHFFCFQGEATRKQAGK [L20Q], the protein stability index is 3.29.
Regarding LTEAEGWHFFCFQGEATRKNAGK [L20N], the protein stability index worked out at 3.41.
Same read-out and setting: under LTEAEGWHFFCFQGEATRKEAGK [L20E] stands 3.6; under LTEAEGWHFFCFQGEATRKFAGK [L20F], 1.97; under LTEAEGWHFFCFQGEATRKSAGK [L20S], 2.94.
In the case of LTEAEGWHFFCFQGEATRKIAGK [L20I], the protein stability index was 2.34.
Same read-out and setting: under LTEAEGWHFFCFQGEATRKGAGK [L20G] stands 3.47.
On to LTEAEGWHFFCFQGEATRKPAGK [L20P], for which the protein stability index came to 3.22.
On the same count and under the same terms, next, LTEAEGWHFFCFQGEATRKMAGK [L20M]: 2.91.
Regarding LTEAEGWHFFCFQGEATRKAAGK [L20A], the protein stability index is 2.36.
Take LTEAEGWHFFCFQGEATRKKAGK [L20K]: the protein stability index is 3.3.
As to LTEAEGWHFFCFQGEATRKVAGK [L20V], the protein stability index was 1.98.
In the case of LTEAEGWHFFCFQGEATRKLACK [G22C], the protein stability index came to 1.07.
On the same count and under the same terms, next, LTEAEGWHFFCFQGEATRKLATK [G22T]: 2.27; LTEAEGWHFFCFQGEATRKLAHK [G22H]: 2.48.
As for LTEAEGWHFFCFQGEATRKLAQK [G22Q], the protein stability index came to 3.22.
On the same count and under the same terms, next, LTEAEGWHFFCFQGEATRKLADK [G22D]: 2.64.
For LTEAEGWHFFCFQGEATRKLANK [G22N], the protein stability index is 2.67.
In the case of LTEAEGWHFFCFQGEATRKLAYK [G22Y], the protein stability index came to 2.39.
As for LTEAEGWHFFCFQGEATRKLARK [G22R], the protein stability index came out at 3.52.
Still for that read-out and setting: under LTEAEGWHFFCFQGEATRKLAIK [G22I] stands 1.91.
Consider LTEAEGWHFFCFQGEATRKLAVK [G22V], for which the protein stability index was determined as 3.23.
Regarding LTEAEGWHFFCFQGEATRKLALK [G22L], the protein stability index was determined as 1.81.
As to LTEAEGWHFFCFQGEATRKLAKK [G22K], the protein stability index came to 2.7.
On to LTEAEGWHFFCFQGEATRKLASK [G22S], for which the protein stability index came to 1.8.
On the same count and under the same terms, next, LTEAEGWHFFCFQGEATRKLAPK [G22P]: 2.47; LTEAEGWHFFCFQGEATRKLAWK [G22W]: 2.17.
As for LTEAEGWHFFCFQGEATRKLAEK [G22E], the protein stability index was determined as 2.54.
Still for that read-out and setting: under LTEAEGWHFFCFQGEATRKLAMK [G22M] stands 1.6; under LTEAEGWHFFCFQGEATRKLAFK [G22F], 1.8; under LTEAEGWHFFCFQGEATRKLAAK [G22A], 1.5.

In the next data set the parent is B2. The data set is described as above. Particulars: c terminus: a fixed tail appended.
As for FIPAKTGKDVATQILPGELFDFDL [E16P], the protein stability index stood at 1.8.
For the variant FIPAKTGKDVATQILYGELFDFDL [E16Y], the protein stability index was 2.01.
As for FIPAKTGKDVATQILLGELFDFDL [E16L], the protein stability index was found to be 1.73.
The same measure, in the same setting: next, FIPAKTGKDVATQILEQELFDFDL [G17Q]: 2.26; FIPAKTGKDVATQILEHELFDFDL [G17H]: 2.34.
Regarding FIPAKTGKDVATQILEGHLFDFDL [E18H], the protein stability index came to 2.
As for FIPAKTGKDVATQILEGTLFDFDL [E18T], the protein stability index stood at 2.62.
Take FIPAKTGKDVATQILEGSLFDFDL [E18S]: the protein stability index turned out to be 2.
Consider FIPAKTGKDVATQIGEGELFDFDL [L15G], for which the protein stability index is 1.89.
On the same count and under the same terms, next, FIPAKTGKDVATQIVEGELFDFDL [L15V]: 1.94; FIPAKTGKDVATQINEGELFDFDL [L15N]: 2.
Turning to FIPAKTGKDVATQIWEGELFDFDL [L15W], the protein stability index was determined as 2.75.
On to FIPMKTGKDVATQILEGELFDFDL [A4M], for which the protein stability index turned out to be 2.74.
The same measure, in the same setting: under FIPLKTGKDVATQILEGELFDFDL [A4L] stands 2.09; under FIKAKTGKDVATQILEGELFDFDL [P3K], 2.4.
Take FIPAKTGKDVATQILEGELDDFDL [F20D]: the protein stability index is 2.92.
On to FIPAKTGKDVATQILEGELSDFDL [F20S], for which the protein stability index worked out at 2.52.
Same read-out and setting: under FIPAKTGKDVATQILEGELEDFDL [F20E] stands 2.6; under TIPAKTGKDVATQILEGELFDFDL [F1T], 4.34; under YIPAKTGKDVATQILEGELFDFDL [F1Y], 1.9.
As for LIPAKTGKDVATQILEGELFDFDL [F1L], the protein stability index is 3.56.
On to FIPAKEGKDVATQILEGELFDFDL [T6E], for which the protein stability index was 2.43.
Consider FIPAKTGKDVATQILEGEHFDFDL [L19H], for which the protein stability index was found to be 2.01.
FIPAKTGKDVATQILEGEEFDFDL [L19E]: the protein stability index was determined as 2.2.
As to FIPAKTGKDVATQSLEGELFDFDL [I14S], the protein stability index was determined as 1.41.
With FIPAKTGKDVATQELEGELFDFDL [I14E], the protein stability index amounted to 2.09.
As for FIPAKTGKDVATQWLEGELFDFDL [I14W], the protein stability index came out at 2.71.
As for FIPAKTGKDVATQTLEGELFDFDL [I14T], the protein stability index was 2.79.
Turning to FIPAKTGKDVATQILEGELFIFDL [D21I], the protein stability index was found to be 2.72.
For FIPAKTGKDVATQILEGELFVFDL [D21V], the protein stability index came out at 1.66.
With FIPAKTGKDVATQILEGELFEFDL [D21E], the protein stability index turned out to be 1.49.
For the variant FIPAKTGKDVATQILEGELFDVDL [F22V], the protein stability index is 2.21.
Consider FIPAKTGKDVATQILEGELFDMDL [F22M], for which the protein stability index was determined as 2.54.
Still for that read-out and setting: under FIPAKTGSDVATQILEGELFDFDL [K8S] stands 1.93; under FIPAKTGIDVATQILEGELFDFDL [K8I], 1.74; under FIPAKTGKDVATQILEGELFDFKL [D23K], 2.12.
In the case of FIPAKTGKDVATQILEGELFDFLL [D23L], the protein stability index stood at 1.98.
The same measure, in the same setting: under FIPAKTGKDVATQILEGELFDFWL [D23W] stands 2.51; under FIPAKTGKDVATQILEGELFDFRL [D23R], 1.42.
Regarding FIPAKTGKEVATQILEGELFDFDL [D9E], the protein stability index was 1.81.
The same measure, in the same setting: under FIPAKTGKDVATLILEGELFDFDL [Q13L] stands 2.38; under FIPAKTGKDVATKILEGELFDFDL [Q13K], 1.78.
As for FIPAKTGKDVATVILEGELFDFDL [Q13V], the protein stability index came out at 2.55.
For the variant FIPAKTGKDVATQILEGELFDFDV [L24V], the protein stability index worked out at 1.85.
Take FIPAKTGKDVATQILEGELFDFDH [L24H]: the protein stability index came to 2.68.
On to FIPAKTGKDVATQILEGELFDFDR [L24R], for which the protein stability index stood at 2.31.
Turning to FIPAKTGKDVATQILEGELFDFDI [L24I], the protein stability index came to 2.
In the case of FKPAKTGKDVATQILEGELFDFDL [I2K], the protein stability index worked out at 3.86.
Consider FIPAPTGKDVATQILEGELFDFDL [K5P], for which the protein stability index was 2.22.
As to FIPACTGKDVATQILEGELFDFDL [K5C], the protein stability index came out at 1.87.
In the case of FIPAKTGKDVFTQILEGELFDFDL [A11F], the protein stability index amounted to 2.13.
With FIPAKTAKDVATQILEGELFDFDL [G7A], the protein stability index is 1.83.
FIPAKTVKDVATQILEGELFDFDL [G7V]: the protein stability index is 2.2.
For the variant FIPAKTIKDVATQILEGELFDFDL [G7I], the protein stability index worked out at 1.96.
Turning to FIPAKTGKDVANQILEGELFDFDL [T12N], the protein stability index came out at 1.89.
On to FIPAKTGKDVAPQILEGELFDFDL [T12P], for which the protein stability index worked out at 1.8.
On to FIPAKTGKDVAEQILEGELFDFDL [T12E], for which the protein stability index came out at 2.04.
On the same count and under the same terms, next, FIPAKTGKDVARQILEGELFDFDL [T12R]: 2.55; FIPAKTGKDVACQILEGELFDFDL [T12C]: 2.02.
